Measurements reported in patent US8691772B2, “HSP60, HSP60 peptides and T cell vaccines for immunomodulation” (Yeda Research and Development Co. Ltd., priority 2005, dated 2014).

Tests used:
human T cells [1] = experiment: T-cell migration assay towards SDF-1α, human T cells; assay type: cell-based; conditions: 1 hr pre-incubation
Text: Human cells. […] Human umbilical cord vein endothelial cells (HUVEC) were isolated from umbilical cord veins and cultured as described (Ponomaryov et al., 2000). Primary cultures were serially passaged, and passages 2 and 3 were taken for experiments.
T-cell migration assay. Migration of ^51[Cr]-labeled human and mouse T cells through FN or endothelial cells to recombinant human SDF-1α was examined in 48-well Transwell chemotaxis apparatus (5-μm pore filters, 6.5-mm diameter; Corning, N.Y.), as previously described (Zanin-Zhorov et al., 2003b). For transendothelial migration assays, 2×10^4 cells of HUVEC were layered on the filters and grown in 10% FCS M199 for 2 days before the performance of each assay. Then, HUVEC were stimulated with TNF-α (50 ng/ml) for 24 hr and washed.

SOCS3 = SOCS3 expression in human T cells (immunoblot); assay type: cell-based
ERK, Pyk2, AKT, MLC = experiment: Western blotting of T-cell lysates (phosphorylation) and cell morphology; assay type: cell-based, human
Method: Western blotting of T-cell lysates. T cells were incubated (24 hr, 37° C.) in starvation medium (RPMI medium without serum). Aliquots (5×10^6/sample) of the starved cells were preincubated (for various intervals) with different concentrations of HSP60 prior to exposure to SDF-1α (100 ng/ml, 10 min, 37° C., tissue culture conditions). These reactions were terminated by freezing the plates (−70° C., 10 min). The plates were thawed, and the cells solubilized by incubating (60 min, 4° C.) in lysis buffer [EDTA (0.5 mM), NaCL (150 mM), NaF (10 nM), Tris pH 7.5 (25 mM), Triton X-100 (1%), PMSF (200 pg/ml), and phosphatase inhibitor cocktail (1%)]. Lysates were cleared by centrifugation (30 min, 14×10^3 rpm, 4° C.), and the resulting supernatants analyzed for protein content. Sample buffer was added, the samples were boiled, and equal amounts of proteins were separated by 10% SDS-PAGE and transferred to nitrocellulose membranes. The membranes were blocked with TBST buffer [Tris pH 7.5 (20 mM), NaCl (135 mM) and Tween 20 (0.1%)] containing low-fat milk (5%), and probed with the following mAb in the same buffer: anti-phosphorylated (p) ERK (0.2 μg/ml), anti-total (t) ERK (diluted 1:20,000), anti-pPyk2 (1.5 μg/ml), anti-tPyk2 (0.2 μg/ml), anti-pAKT (diluted 1:1000), anti-tAKT (diluted 1:1000), anti-pMLC (diluted 1:250), and anti-tMLC (diluted 1:1000), anti-pSTAT3 (diluted 1:250), and anti-STAT3 (diluted 1:500). Immunoreactive protein bands were visualized using a horseradish peroxidase-conjugated goat anti-mouse Ab and the enhanced ECL system. Phosphorylation levels of the 3-5 independent experiments were estimated by densitometry, and an average percentage of phosphorylation±SD was calculated as OD of pERK/tERK, or pPyk2/tPyk2, or pAKT/tAKT, pMLC/tMLC, or pSTAT3/tSTAT3×100%.
Cell morphology. T cells (3×10^6 cells/ml) were seeded in flat-bottom, 24-well plates in 500 μl of RPMI on coverslips coated with FN (25 μg/ml). Some T cells were pretreated (1 hr, 37° C., in a 7.5% CO2 humidified atmosphere) with anti-TLRs mAb (20 μg/ml), and then with HSP60 (1 hr). After which, SDF-1α (200 ng/ml) was added, and the cells allowed to adhere (30 min, 37° C., in a 7.5% CO2 humidified atmosphere). The cells were then fixed in 3.7% paraformaldehyde and permeabilized (5 min, room temperature) with 0.5% TritonX-100. For actin visualization, cells were stained with rhodamine-labeled phalloidin (diluted 1/100), and examined with a laser-scanning confocal microscope (LSM510, Zeiss).

human T cells [2] = experiment: In vivo homing assay of human T cells to bone marrow; design: species or system NOD/SCID mice; conditions: T cells pretreated (HSP60 1 μg/ml for 1 hr or mAb); 16 hr after injection
Method: In vivo homing assay. Purified human T cells were incubated (1 hr, tissue culture conditions) with HSP60 (1 μg/ml) in tissue culture conditions. The cells were then washed with PBS, and, where indicated, further incubated (30 min, 4° C.) with mouse anti-human CXCR4 mAb (10 μg/3×10^6 cells), anti-human TLR2 or anti-TLR4 mAb (each at 20 μg/ml). The cells were then washed and injected (5×10^6 cells/0.5 ml per mouse) i.v. into the tails of irradiated (375 cGY from a ^60[Co] source), 8-week-old NOD/SCID mice, and the entrance of human T cells into the bone marrow of recipient mice was evaluated as previously described (Kollet et al., 2001). Each tested sample contained 1.5×10^6 cells.

[3] = human T cells, SDF-1α 100 ng/ml, 10 min

B1: HSP60: recombinant human heat shock protein 60 (StressGen Biotechnologies) (protein)
chain: AKDVKFGADARALMLQGVDLLADAVAVTMGPKGRTVIIEQSWGSPKVTKDGVTVAKSIDLKDKYKNIGAKLVQDVANNTNEEAGDGTTTATVLARSIAKEGFEKISKGANPVEIRRGVMLAVDAVIAELKKQSKPVTTPEEIAQVATISANGDKEIGNIISDAMKKVGRKGVITVKDGKTLNDELEIIEGMKFDRGYISPYFINTSKGQKCEFQDAYVLLSEKKISSIQSIVPALEIANAHRKPLVIIAEDVDGEALSTLVLNRLKVGLQVVAVKAPGFGDNRKNQLKDMAIATGGAVFGEEGLTLNLEDVQPHDLGKVGEVIVTKDDAMLLKGKGDKAQIEKRIQEIIEQLDVTTSEYEKEKLNERLAKLSDGVAVLKVGGTSDVEVNEKKDRVTDALNATRAAVEEGIVLGGGCALLRCIPALDSLTPANEDQKIGIEIIKRTLKIPAMTIAKNAGVEGSLIVEKIMQSSSEVGYDAMAGDFVNMVEKGIIDPTKVVRTALLDAAGVASLLTTAEVVVTEIPKEEKDPGMGAMGGMGGGMGGGMF
In the case of B1, the “SDF-1α-induced T-cell chemotaxis through TNF-α-activated endothelial cells” value (human T cells [1]) is reported as “significant inhibition of T-cell chemotaxis toward SDF-1α”, the “SDF-1α-induced T-cell chemotaxis through fibronectin” value (human T cells [1]; various concentrations) is reported as “significant inhibition of T-cell chemotaxis toward SDF-1α” and the “time at which SOCS3 activation was apparent” value (SOCS3; 1 ng/ml) is reported as 30 min. The “time of peak SOCS3 activation” value (SOCS3; 1 ng/ml) was 1 to 2 h, the “HSP60 concentrations of maximal SOCS3 activation” value (SOCS3; biphasic dose-response curve) was 1 ng/mL and 1000 ng/mL and the “expression of SOCS3” value (SOCS3; human T cells, 1 hr, 0-1000 ng/ml) was “activated the expression of SOCS3 (P<0.05)”. The SDF-1α-induced polarized morphology (ERK, Pyk2, AKT, MLC; FN-coated coverslips, HSP60 1 μg/ml) was “inhibits”, the “SDF-1α-induced phosphorylation of MLC” value (ERK, Pyk2, AKT, MLC; HSP60 1 hr then SDF-1α 100 ng/ml, 10 min) was “inhibits SDF-1α-induced phosphorylation of MLC” and the “phosphorylation of MLC” value (ERK, Pyk2, AKT, MLC; HSP60 1 hr, no SDF-1α) was “induces phosphorylation of MLC”. For the same molecule, the “SDF-1α-induced AKT phosphorylation” value (ERK, Pyk2, AKT, MLC; [3]) was “inhibits”, the “SDF-1α-induced ERK phosphorylation” value (ERK, Pyk2, AKT, MLC; [3]) was “inhibits” and the “SDF-1α-induced Pyk2 phosphorylation” value (ERK, Pyk2, AKT, MLC; [3]) was “inhibits”. The “homing of human T cells to the bone marrow” value (human T cells [2]) was “significantly (P<0.05) decreased their homing to the bone marrow”.
